Results on twelve molecules are retold here after patent US20190100588A1 (VISTERRA, published 2019).

The chains are these.
T1: cell surface CD138 (human CD138) (human, UniProt P18827 23-310)
T1 construct: whole, on cells; also called membrane CD138
T1 sequence (looked up): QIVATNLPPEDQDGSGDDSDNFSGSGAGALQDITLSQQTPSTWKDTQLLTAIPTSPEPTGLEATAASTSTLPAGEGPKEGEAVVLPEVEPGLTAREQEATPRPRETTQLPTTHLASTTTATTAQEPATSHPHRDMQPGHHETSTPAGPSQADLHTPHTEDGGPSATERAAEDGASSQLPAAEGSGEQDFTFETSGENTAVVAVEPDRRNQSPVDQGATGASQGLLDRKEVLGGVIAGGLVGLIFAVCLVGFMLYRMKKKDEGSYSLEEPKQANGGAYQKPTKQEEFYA

T2: recombinant CD138 extracellular domain (soluble CD138) (human, UniProt P18827 23-250)
T2 construct: also called soluble CD138 extracellular domain; biotinylated CD138
T2 sequence: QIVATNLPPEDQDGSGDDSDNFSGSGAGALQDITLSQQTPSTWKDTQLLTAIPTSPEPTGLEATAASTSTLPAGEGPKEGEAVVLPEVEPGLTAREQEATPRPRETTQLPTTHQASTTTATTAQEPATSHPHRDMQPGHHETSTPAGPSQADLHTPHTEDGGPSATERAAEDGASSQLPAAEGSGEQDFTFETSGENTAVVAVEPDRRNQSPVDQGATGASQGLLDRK

T3: rCD138 (recombinant CD138) (human, UniProt P18827 23-254, limits assumed)
T3 sequence (looked up): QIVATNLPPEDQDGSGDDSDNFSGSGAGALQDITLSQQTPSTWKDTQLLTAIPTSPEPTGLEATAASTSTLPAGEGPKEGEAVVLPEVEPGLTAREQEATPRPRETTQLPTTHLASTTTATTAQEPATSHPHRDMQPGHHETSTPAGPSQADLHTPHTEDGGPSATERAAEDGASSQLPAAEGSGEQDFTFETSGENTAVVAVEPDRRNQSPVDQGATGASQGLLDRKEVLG

T4: Pep4 (human)
T4 construct: also called Peptide 4
T4 peptide: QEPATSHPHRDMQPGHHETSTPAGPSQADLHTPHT

T5: Pep5 (human)
T5 construct: also called Peptide 5
T5 peptide: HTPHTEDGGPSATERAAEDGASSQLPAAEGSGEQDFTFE

T6: Pep6 (human)
T6 construct: also called Peptide 6; Peptide-6
T6 peptide: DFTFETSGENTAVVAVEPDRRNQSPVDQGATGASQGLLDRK

T7: Pep3 (human)
T7 construct: also called Peptide 3
T7 peptide: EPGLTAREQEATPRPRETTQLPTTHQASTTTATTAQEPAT

T8: Peptide 2a (human)
T8 construct: also called Pep2a
T8 peptide: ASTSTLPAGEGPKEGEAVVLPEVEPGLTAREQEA

B1: antibody 2610 (antibody, V domains shown)
VH: QVQLHQPGTSLVKPGASVKLSCKASGYSFSSYYMHWVKQRPGQGLEWIGTIHPSDSTTNCNQKFKGKATLTVDKSSRTAYMQLNSLTFEDSAVYYCANFVYWGQGTSVTVSS
VL: DIVITQDELSNPVTSGDSVSISCRSSKSLLYKDGKTYLNWFLQRPGQSPQLLIYVVSTRASGVSDRFSGSGSGTDFTLEISRVKAEDVGVYYCQQLVEYPYTFGGGTKLEIK
B2: antibody 2710 (antibody, V domains shown)
VH: B1 VH with S28T
VL: B1 VL
B3: antibody 2510 (antibody, human IgG1, V domains shown)
VH: B1 VH with S28N, C60Y
VL: B1 VL
B4: antibody 603 (antibody, V domains shown)
VH: QVQVQVPGAELVKPGASVKVSCKASGYTFTSYWMHWMKKRPGQGLEWIGRIHPSDSDTNYNQNFKGKATLTVDKSSSTAYMQLSSLTSEDSAVYFCATGFSFWGQGTLVTVSA
VL: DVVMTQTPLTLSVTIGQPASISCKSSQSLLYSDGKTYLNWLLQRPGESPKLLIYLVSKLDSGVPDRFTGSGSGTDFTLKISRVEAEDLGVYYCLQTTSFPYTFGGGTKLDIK
notes: Mouse hybridoma-derived anti-CD138 antibody
B5: antibody 624 (antibody, V domains shown)
VH: B4 VH with V6L, M37V, S84T, S91F, F95Y, A97S
VL: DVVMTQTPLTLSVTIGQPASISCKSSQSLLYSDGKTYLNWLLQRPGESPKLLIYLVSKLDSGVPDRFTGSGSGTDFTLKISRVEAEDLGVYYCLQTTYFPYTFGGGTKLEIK
notes: Mouse hybridoma-derived; afucosylated form used for ADCC
B6: antibody 619 (antibody, V domains shown)
VH: QIQLVQSGPELKKPGETVKISCKASGYTFTTYGMSWVKQAPGKGLKWMGWINTYSGVPTYADDFKGRFAFSLETSASTAYLQINNLKNEDTATYFCAREGSTMVTRYYFDYWGQGTTLTVSS
VL: DIVMTQAAPSVPVTPGESVSISCRSSKSLLHSNGNTYLYWFLQRPGQSPQVLIYRMSNLASGVPDRFSGSGSGTAFTLRISRVEAEDVGVYYCMQHLESPYTFGGGTKLEIK
notes: as for B4
B7: antibody 616 (antibody, V domains shown)
VH: B6 VH with Q3H, K19R, G44A, A97T
VL: B6 VL with V51L, Y92H, K108T
notes: as for B4
B8: antibody 623 (antibody, V domains shown)
VH: B6 VH with Y94F
VL: B6 VL with V51L, S99Y, Y101S
notes: as for B4
B9: antibody 604 (antibody, V domains shown)
VH: QVQLQQPGAELVKPGASVKVSCKASGYNFINYWMHWVKQRPGQGLEWIGRIHPSDSYTNYNQKFKGKATLTVDKSSSTAYMQLSSLTSEDSAVYYCASPISTLYWGQGTTLTVSS
VL: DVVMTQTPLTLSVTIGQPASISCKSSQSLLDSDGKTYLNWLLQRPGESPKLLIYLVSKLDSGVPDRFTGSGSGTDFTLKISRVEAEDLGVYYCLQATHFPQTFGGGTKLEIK
notes: as for B4
B10: antibody 2910 (antibody, V domains shown)
VH: B1 VH with S28T, C60Y
VL: B1 VL
B11: antibody 617 (antibody, V domains shown)
VH: B4 VH with V4L, V6L, G26A, M37V, K39Q, S77N, F95Y
VL: DIVMTQSHKFMSTSVGDRVSITCKASQDVSTTVAWYQQKPGQSPKLLIYSASYRYTGVPDRFTGSGSGTDFTFTISSVQAEDLAVYYCQQHYSTRPTFGGGTKLEIK
notes: as for B4
B12: antibody 1409 (antibody, human IgG1, V domains shown)
VH: EVQLVESGGGLVQPKGSLKLSCAASGFTFNTYAMHWVRQAPGKGLEWVARIRSKSSNYATYYADSVKDRFTISRDDSQSMLYLQMNNLKTEDTAMYYCVRELRLRYAMDYWGQGTSVTVSS
VL: DILMTQTPLTLSVTIGQPASISCKSSQSLLYTNGKTYLNWLLQRPGQSPKRLIYLVSKLDSGVPDRFSGSGSGTDFTLKISRVEAEDLGVYYCLQSTHFPLTFGAGTKLELK
notes: Chimeric monoclonal antibody, murine variable regions and human IgG1

Numbering of substitutions follows the chain as printed.

For the first test, the target named is T1, cell surface CD138 (human CD138). Description: form of CD138 not named.
Take B1: the binding result was “binds”.

For the molecule B2, the binding result is recorded as “binds”.

A further test concerns the target T2, recombinant CD138 extracellular domain …. The test is described as follows: ELISA (FIG. 18A).
Turning to B3, the binding result is given as “binds”.

As to B1, the binding result is given as “binds”.

The next test deals with T1, cell surface CD138 (human CD138). The test is described as follows: flow cytometry, RPMI 8226 cells. As for the experimental part: (§1) Binding of anti-CD138 antibodies to CD138 was tested by flow cytometry binding assay. Multiple myeloma cell lines RPMI 8226 (ATCC) and U266 (ATCC) were grown in RPMI1640 with 10% FBS. On the day of experiment, 0.25×10⁶ cells were washed with FACS buffer (PBS+0.5% BSA) and incubated with dilution series of anti-CD138 antibodies (starting 10 ug/ml) or hybridoma supernatants (starting with undiluted supernatant) for 30 min at 4° C. followed by incubation with goat-anti-human/mouse conjugated APC antibodies (BioLegend) for 30 min at 4° C. Fluorescence was detected using flow cytometer.
On to B4, for which the “% cells Positive” value was found to be 81.4%.

With B5, the “% cells Positive” value is 89.3%.

Take B6: the “% cells Positive” value amounted to 85%.

As to B7, the “% cells Positive” value came out at 18.3%.

With B8, the “% cells Positive” value turned out to be 63.8%.

For B9, the “% cells Positive” value was determined as 82.5%.

A further test shares this target. The test is described as follows: flow cytometry, U266 cells, afucosylated antibody. On the procedure:
as §1
The afucosylated antibody variants were then tested for capacity to induce ADCC, as described above.
(In general: A flow cytometer gives signals particle by particle.)
B3: the binding result was “binds”.

On to B10, for which the binding result is given as “binds”.

The next test concerns the target T3, rCD138 (recombinant CD138). The test is described as follows: ELISA, coated rCD138. (In general: ELISA stands for enzyme-linked immunosorbent assay.)
Regarding B4, the “ELISA O.D.” value was 0.585 O.D.

In the case of B5, the “ELISA O.D.” value was determined as 1.52 O.D.

Take B6: the “ELISA O.D.” value turned out to be 0.882 O.D.

In the case of B7, the “ELISA O.D.” value came to 1.18 O.D.

With B8, the “ELISA O.D.” value amounted to 0.803 O.D.

Turning to B9, the “ELISA O.D.” value was 0.61 O.D.

A further test addresses T4, Pep4. Description: ELISA, coated peptide.
Consider B11, for which the “ELISA O.D.” value was 0.091 O.D.

B4: the “ELISA O.D.” value stood at 0.051 O.D.

Turning to B5, the “ELISA O.D.” value was 0.069 O.D.

B6: the “ELISA O.D.” value is 0.066 O.D.

For B7, the “ELISA O.D.” value was 0.065 O.D.

B8: the “ELISA O.D.” value was 0.082 O.D.

Regarding B9, the “ELISA O.D.” value worked out at 0.058 O.D.

The target in a further test is T5, Pep5. Description: ELISA, coated peptide.
With B11, the “ELISA O.D.” value worked out at 0.066 O.D.

As to B4, the “ELISA O.D.” value came to 0.053 O.D.

In the case of B5, the “ELISA O.D.” value came to 0.066 O.D.

As for B6, the “ELISA O.D.” value was found to be 0.066 O.D.

Turning to B7, the “ELISA O.D.” value is 0.061 O.D.

For B8, the “ELISA O.D.” value stood at 0.08 O.D.

In the case of B9, the “ELISA O.D.” value stood at 0.067 O.D.

The target in the next test is T6, Pep6. The test is described as follows: ELISA, coated peptide.
On to B11, for which the “ELISA O.D.” value was 0.809 O.D.

Turning to B4, the “ELISA O.D.” value amounted to 0.863 O.D.

For the molecule B5, the “ELISA O.D.” value worked out at 1.68 O.D.

As to B6, the “ELISA O.D.” value stood at 1.37 O.D.

With B7, the “ELISA O.D.” value was determined as 1.62 O.D.

For B8, the “ELISA O.D.” value came to 1.67 O.D.

As for B9, the “ELISA O.D.” value stood at 0.939 O.D.

A further test deals with T7, Pep3. Description: ELISA, coated peptide.
For the molecule B4, the “ELISA O.D.” value is 0.047 O.D.

Take B5: the “ELISA O.D.” value is 0.069 O.D.

B6: the “ELISA O.D.” value was 0.067 O.D.

As to B7, the “ELISA O.D.” value worked out at 0.063 O.D.

For the molecule B8, the “ELISA O.D.” value came to 0.086 O.D.

In the case of B9, the “ELISA O.D.” value was 0.058 O.D.

A further test addresses T8, Peptide 2a. The test is described as follows: ELISA (FIG. 18B).
As to B3, the binding result is on record as “binds”.

With B1, the binding result was “binds”.

The target of a further test is T6, Pep6. Description: peptide binding ELISA. As for the experimental part: (§2) As above, the monoclonal antibodies were tested for binding to a series of CD138 peptides in four-fold serial dilutions starting at 1 μg/mL. […] HRP-conjugated anti-human IgG-Fc antibody (1:5000 dilution) was used for detection. Antibody B-B4 was also tested as a reference. […] Reference antibody B-B4 only bound to Peptide 2a.
On to B12, for which the binding result is “binds”.

The target in the next test is T8, Peptide 2a. Description: peptide binding ELISA. As for the experimental part:
as §2
With B12, the binding result is “binds”.

A further test deals with T1, cell surface CD138 (human CD138). Description: flow cytometry, U266 cells. On the procedure:
as §1
On to B4, for which the “% cells Positive” value is 95.8%.

For the molecule B5, the “% cells Positive” value was 96.7%.

Turning to B6, the “% cells Positive” value was determined as 3.7%.

In the case of B7, the “% cells Positive” value was determined as 6.1%.

On to B8, for which the “% cells Positive” value is 7%.

As to B9, the “% cells Positive” value came to 96%.

A further test addresses T6, Pep6. Description: ELISA (FIG. 18C).
In the case of B3, the binding result is recorded as “binds”.

With B1, the binding result is “binds”.
